Results published in patent US20240132572A1.

Assays:
[1] = target: IFN-alpha receptor 1 (IFNAR1) (UniProt P17181); experiment: SPR (Biacore X100); rhIFNAR2 immobilised on CM5 chip; 6.25-100 nM IFN fusion mixed with 100 nM IFNAR1 injected (ternary complex)
[2] = target: IFN alpha receptor (IFNAR) (UniProt P17181); experiment: cell-based or functional assay

Substance	Kd [1] [nM]	IC50 (nM), antiviral activity (cytopathic effect inhibition, A549 cells, EMCV) [2] [nM]	inhibition of osteopontin (OPN) production in stimulated human PBMC at 1.5 ng/mL [2] [%]	inhibition of osteopontin (OPN) production in stimulated human PBMC at 10 ng/mL [2] [%]
interferon alpha Fc fusion protein (IFNα-Fc)	18	0.0313		
natural fibroblast derived human IFNβ-1a (Rebif®) (from UniProt P01574 22-187) (ligand)			88.4	81.3
